# Measurements: patent publication US20160200813A1
# Positions count from the first letter of the chain named.
# B1: anti-LRP-8 BGK.2C8.E6.D3 [r/m IgG2a/K] (antibody, V domains shown)
# VH: QVTLKESGPGILQPSQTLSLTCTFSGFSLNTYGMGVGWVRQPSGKGLEWLANIWWDDDKFYNPSLKNRLTVSKDTSNNQAFLRITNGDTADTATYFCARILGEDIGGALDAWGQGTSVTVSS
# VL: DTVLTQSPALAVSPGERVSISCRASEGVNSYMHWYQQNPGQQSKLLIYRTSNLASGVPARFGGSGSGTDFTLTIDPVEADDTATYFCQQSWNDPPTFGGGTKLELK
# B2: anti-LRP-8 BGK.6E3.F4 [r/m IgG2a/K] (antibody, V domains shown)
# VH: EVQLVESGGGLVQPGKSLKLSCAASGFTFSDYNMAWVRQAPKKGLEWVATIMYDGSRTFYRDSVKGRYTFSRDNAKSTLYLQMDSLRSEDTATYYCATGRNWFAYWGQGTLVTVSS
# VL: DIIMTQSPSSLAVSAGETVTINCKSSQSLLSSGKQKNYLAWYQQKPGQSPKLLIYLASTRESGVPDRFIGSGSGTDFTLTISSMQAEDLAIYYCQQHYDTPLTFGSGTKLEIK
# B3: anti-LRP-8 BGK.5D10.E4 [r/m IgG2a/K] (antibody, V domains shown)
# VH: QVQLRETGPDLVQPTQTLSLTCTVSGFSLTNYPVQWVRQPPGSGLEWLGIMWPSGAADFNPALKSRLSISRDTSKSQFFLRMDNLQTDDTAIYFCARGRGYSSPYAMDAWGQGTSVTVSS
# VL: DIQMTQSPASLSASLGETVSIECLASEDIYNNLAWYQQKPGKSPHLLIHFTSNLQDGVPSRFSGSGSGTQYSLKINSLESEDGATYFCLQDSEYPLTFGSGTKLEIK
# B4: anti-LRP-8 antibody CL-135325 (antibody, V domains shown)
# VH: EVQLVQSGGGLVQPGGSLRLSCAASGFTFSIYAMSWVRQAPGKGLEWVSVISCSAGSTYYADSVKGRFTISRDNSKNTLYLQMNSLRAEDTAVYYCARHSVHEEFPFDVWGQGTLVTVSS
# VL: DIQMTQSPSSLSASVGDRVTITCRASQSIGSYLNWYQQKPGKAPKLLIYAASSLQSGVPSRFSGSGSGTDFTLTISSLQPEDFATYYCQQSYIPPLTFGGGTKVEIK
# B5: anti-LRP-8 antibody CL-135359 (antibody, V domains shown)
# VH: EVQLVQSGGGLVQPGGSLRLSCAASGFTFSSYAMSWVRQAPGKGLEWVSVISCSGGTTYYADSVKGRFTISRDNSKNTLYLQMNSLRAEDTAVYYCARNGGQFDLWGQGTLVTVSS
# VL: B4 VL with S28G, G30C, S31T, I93N
# B6: anti-LRP-8 ML199-11H1.5B2 murine antibody (muFc) (antibody, V domains shown)
# VH: EVQLVESGGDLVKPGGSLKLSCAASRFTFSNYGMSWVRQTPDKRLEWVATISSGGRYTYYPDSVKGRFTISRDNAKNTLYLQMSSLRSEDTAMYYCARDYLYAMDYWGQGTSVTVSS
# VL: DVVMTQTPLSLPVSLGDQASISCRSSQSLVYSNGNTYLHWYLQKPGQSPKVLMYKVSNRFSGVSDRFSGSGSGTDFTLKISRVEAEDLGVYFCSQSTHVPLTFGAGTKLELK
# B7: humanized ML199-11H1.5B2VH.1/VL.1a (antibody, V domains shown)
# VH: EVQLVESGGGLVKPGGSLRLSCAASRFTFSNYGMSWVRQAPGKGLEWVSTISSGGRYTYYPDSVKGRFTISRDNAKNSLYLQMNSLRAEDTAVYYCARDYLYAMDYWGQGTTVTVSS
# VL: B6 VL with T7S, S14T, L15P, D17E, Q18P, K50Q, S64P, L88V, A105Q, L111I
# B8: humanized ML199-11H1.5B2VH.1a/VL.1a (antibody, V domains shown)
# VH: B7 VH with S49A
# VL: B6 VL with T7S, S14T, L15P, D17E, Q18P, K50Q, S64P, L88V, A105Q, L111I
# B9: humanized ML199-11H1.5B2VH.1/VL.1b (antibody, V domains shown)
# VH: B7 VH
# VL: DVVMTQSPLSLPVTPGEPASISCRSSQSLVYSNGNTYLHWYLQKPGQSPQVLIYKVSNRFSGVPDRFSGSGSGTDFTLKISRVEAEDVGVYYCSQSTHVPLTFGQGTKLEIK
# B10: humanized ML199-11H1.5B2VH.1/VL.1 (antibody, V domains shown)
# VH: B7 VH
# VL: B9 VL with V2I, V51L
# B11: humanized ML199-11H1.5B2VH.1a/VL.1 (antibody, V domains shown)
# VH: B7 VH with S49A
# VL: B9 VL with V2I, V51L
# B12: humanized ML199-11H1.5B2VH.1a/VL.1b (antibody, V domains shown)
# VH: B7 VH with S49A
# VL: B9 VL
# B13: anti-LRP-8 BGK-7F7 chimeric antibody (CL-105960) (antibody, V domains shown)
# VH: QVTLKESGPGILQPSQTLSLTCTFSGFSLSTYGLGVGWIRQPSGKGLEWLANIWWDDAKYYNPSLKNRLTISKDTSNNQAFLKIPNVDTADTARYYCARTTKPYYFDYWGQGVMVTVSS
# VL: HFVLAQPNSVSTNLGSTVKLSCKRSTANIGSNYVNWYQQHEGRSPTTLIYRDDRRPDGVPDRFSGSIDRSSNSALLTINNVQTEDEADYFCQSYSSGINIFGGGTKLTVL
# B14: anti-LRP-8 BGK-6B5-2 chimeric antibody (CL-105969) (antibody, V domains shown)
# VH: B13 VH with T3S, K5Q, Y32F, L34M, A58D, P85T, R94T, T101A, Q111H
# VL: B13 VL with S16N, A27G, R54K, I67F, S95N, I100F
# B15: anti-LRP-8 BGK-7A11 chimeric antibody (CL-105959) (antibody, V domains shown)
# VH: B13 VH with L34M, S43A, K45T, A58D, A80V, P85T, R94T
# VL: B13 VL with A27G, I29S, H40Y, L48M, R54K
# B16: anti-LRP-8 BGK-9D10-2 antibody (CL-105967) (antibody, V domains shown)
# VH: EVQLVESGGGLVQSGRSLKLSCAASGFTFSNYYMAWVRQAPKKGLEWVATITTSGSRSFYPDSVKGRFTISRDNAKSSLYLQINSLKSEDTATYYCARRGPLGYFDHWGRGVMVTVSS
# VL: DIQMTQSPPSLPASLGDKVTITCQASQNINKYIAWYQQKPGKAPRLLIRFTSTLESDTPSRFSGSGSGRDYSFSISNVESEDFASYYCLHYDNLPPWTFGGGTKLELK
# B17: anti-LRP-8 ML201-8F3.3D7 murine antibody (muFc) (antibody, V domains shown)
# VH: B6 VH with Y32F
# VL: B6 VL
# B18: anti-LRP-8 antibody ab58216 (mFc) (antibody, V domains shown)
# VH: EVHLQQSGPEVVKPGASVKISCKASGYIISGYFLNWVKQSHGKSLEWVGRINPYSGDTFFNQKFKGKATLTVDKSSNTAHMELRSLTSEDSAVFYCAREDIGRFAYWGQGTLVTVSA
# VL: DVLMTQTPLSLPVSLGDQASISCRSSQTIVHSNGNTYLEWYLQKPGQSPKLLIYKVSNRFSGVPDRFSGSGSGTDFTLKISRVEAEDLGVYYCFQGSHAPPTFGGGTKLEIK
# B19: anti-LRP-8 ML201-2B4.2B1.2H10 murine antibody (muFc) (antibody, V domains shown)
# VH: DVKLVASGGGLVKPGGSLKLSCAASGFTLSRYAMSWVRQTPEKRLEWVAYIRNGGDYIYYADTVKGRFTISRDNARNTLYLQMSSLKSEDTAMYYCTREGSYYNFDYWGQGTTLTVSS
# VL: B18 VL with T28S, K50N, Y54F, S68I, A99V, P101W
# Molecular target: Mouse LRP-8 expressed on HEK293 cells (mouse) (UniProt Q924X6)
# Assay: cell-based binding on MOUSE LRP8-HEK293, supernatant 1:125
row,fold over isotype control [fold],Binder
1,0.43,B1
2,0.21,B2
3,0.16,B3

# Molecular target: Mouse LRP-8 expressed on HEK293 cells (mouse) (UniProt Q924X6)
# Assay: FACS, mouse LRP8 cells
row,FACS (ratio +/-),Binder
1,21.2,B4
2,7.3,B5

# Molecular target: Mouse LRP-8 expressed on HEK293 cells (mouse) (UniProt Q924X6)
# Assay: fit of the FACS titration of FIG. 12A on mLRP8-transfected HEK293 cells; the column head prints EC50 only, nM is from legend paragraph 78 and the axis of FIG. 12A
row,EC50 [nM],Binder
1,8.36,B6

# Molecular target: Mouse LRP-8 expressed on HEK293 cells (mouse) (UniProt Q924X6)
# Assay: mLRP8 cell binding
row,EC50 [nM],Binder
1,13.4,B7
2,41.8,B8
3,7.92,B9
4,22.4,B10
5,6.83,B11
6,19.6,B12

# Molecular target: Mouse LRP-8 expressed on HEK293 cells (mouse) (UniProt Q924X6)
# Assay: cell-based MSD binding assay on 293H-mLRP8 cells; curve label LRP8-11H1
row,EC50 [nM],Binder
1,0.3,B7

# Molecular target: Mouse LRP-8 expressed on HEK293 cells (mouse) (UniProt Q924X6)
# Assay: cell-based binding on MOUSE LRP8-HEK293, supernatant 1:5
row,fold over isotype control [fold],Binder
1,0.19,B1
2,0.72,B2
3,0.04,B3

# Molecular target: Mouse LRP-8 expressed on HEK293 cells (mouse) (UniProt Q924X6)
# Assay: cell-based binding on MOUSE LRP8-HEK293, supernatant 1:25
row,fold over isotype control [fold],Binder
1,0.45,B1
2,0.44,B2
3,0.16,B3

# Molecular target: Mouse LRP-8 expressed on HEK293 cells (mouse) (UniProt Q924X6)
# Assay: cell-based binding assay, mLRP8
row,EC50 [nM],Binder
1,3.92,B13
2,41.8,B14
3,27.6,B15
4,0.43,B16

# Molecular target: Mouse LRP-8 expressed on HEK293 cells (mouse) (UniProt Q924X6)
# Assay: cell-based ECL-MSD, 10 ug/ml Ab, mouse-LRP-8-HEK293
row,fold over mIgG control [fold],Binder
1,23.1,B6
2,21.1,B17
3,19.2,B18
4,1.2,B19
